US20230203157A1 (published 2023)

T1: mouse PD-1 (mouse, UniProt Q02242 25-288)
T1 sequence (looked up): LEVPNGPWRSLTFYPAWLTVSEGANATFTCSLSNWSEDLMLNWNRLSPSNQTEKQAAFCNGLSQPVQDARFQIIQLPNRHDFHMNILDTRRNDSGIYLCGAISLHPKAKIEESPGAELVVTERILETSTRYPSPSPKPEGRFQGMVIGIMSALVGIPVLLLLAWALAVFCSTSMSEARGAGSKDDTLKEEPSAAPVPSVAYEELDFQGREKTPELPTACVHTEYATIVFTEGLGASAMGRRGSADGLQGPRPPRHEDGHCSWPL

B1: LoSTIM 7 (bispecific antibody, mouse IgG2a, kappa)
heavy: DVALTQTPVAQPVTLGDQASISCRSSQSLVHSNGRTYLEWYLQKPGQSPQLLIYKVSNRFSGVPDRFIGSGSGSDFTLTISRVEPEDLGVYYCFQATHDPNTFGAGTKLELKGGGGSGGGGSGGGGSQVQLQQSGAELVKPGSSVKISCKASGYTFTSHFIHWIKQQPGNGLEWIGGIYPGDGDTEYNQQFNGKATLTADKSSSTAYMRLSSLTSEDSAVYFCATRVPSYWFFDFWGPGTMVTVSSGGGGAGGGGDVQLVESGGGLVQPGGSRKLSCAASGFTFSSFGMHWVRQAPEKGLEWVAYISSGSNTIYYADTVKGRFTISRDNPKNTLFLQMTSLRSEDTAMYYCALTTGSWFAYWGQGTLVTVSAAKTTAPSVYPLAPVCGDTTGSSVTLGCLVKGYFPEPVTLTWNSGSLSSGVHTFPAVLQSDLYTLSSSVTVTSSTWPSQSITCNVAHPASSTKVDKKIEPRGPTIKPCPPCKCPAPNLEGGPSVFIFPPKIKDVLMISLSPIVTCVVVDVSEDDPDVQISWFVNNVEVHTAQTQTHREDYNSTLRVVSALPIQHQDWMSGKAFACAVNNKDLPAPIERTISKPKGSVRAPQVYVLPPPEEEMTKKQVTLTCMVTDFMPEDIYVEWTNNGKTELNYKNTEPVLDSDGSYFMYSKLRVEKKNWVERNSYSCSVVHEGLHNHHTTKSFSRTPGK
light: DILLTQSPAILSVRPGERVSFSCRASQSLGTSIHWYQQRTDGSPRLLIKYASESISGIPSRFSGSGSGTDFTLSINSVESEDIADYYCQQSNSWPITFGAGTKLELKRADAAPTVSIFPPSSEQLTSGGASVVCFLNNFYPKDINVKWKIDGSERQNGVLNSWTDQDSKDSTYSMSSTLTLTKDEYERHNSYTCEATHKTSTSPIVKSFNRNEC
B2: LoSTIM 8 (bispecific antibody, mouse IgG2a, kappa)
heavy: DVQLVESGGGLVQPGGSRKLSCAASGFTFSSFGMHWVRQAPEKGLEWVAYISSGSNTIYYADTVKGRFTISRDNPKNTLFLQMTSLRSEDTAMYYCALTTGSWFAYWGQGTLVTVSAAKTTAPSVYPLAPVCGDTTGSSVTLGCLVKGYFPEPVTLTWNSGSLSSGVHTFPAVLQSDLYTLSSSVTVTSSTWPSQSITCNVAHPASSTKVDKKIEPRGPTIKPCPPCKCPAPNLEGGPSVFIFPPKIKDVLMISLSPIVTCVVVDVSEDDPDVQISWFVNNVEVHTAQTQTHREDYNSTLRVVSALPIQHQDWMSGKAFACAVNNKDLPAPIERTISKPKGSVRAPQVYVLPPPEEEMTKKQVTLTCMVTDFMPEDIYVEWTNNGKTELNYKNTEPVLDSDGSYFMYSKLRVEKKNWVERNSYSCSVVHEGLHNHHTTKSFSRTPGKGGGGAGGGGDVALTQTPVAQPVTLGDQASISCRSSQSLVHSNGRTYLEWYLQKPGQSPQLLIYKVSNRFSGVPDRFIGSGSGSDFTLTISRVEPEDLGVYYCFQATHDPNTFGAGTKLELKGGGGSGGGGSGGGGSQVQLQQSGAELVKPGSSVKISCKASGYTFTSHFIHWIKQQPGNGLEWIGGIYPGDGDTEYNQQFNGKATLTADKSSSTAYMRLSSLTSEDSAVYFCATRVPSYWFFDFWGPGTMVTVSS
light: B1 light
B3: LoSTIM 3 (bispecific antibody, mouse IgG2a, kappa)
heavy: DVALTQTPVAQPVTLGDQASISCRSSQSLVHSNGRTYLEWYLQKPGQSPQLLIYKVSNRFSGVPDRFIGSGSGSDFTLTISRVEPEDLGVYYCFQATHDPNTFGAGTKLELKGGGGSGGGGSGGGGSQVQLQQSGAELVKPGSSVKISCKASGYTFTSHFIHWIKQQPGNGLEWIGGIYPGDGDTEYNQQFNGKATLTADKSSSTAYMRLSSLTSEDSAVYFCATRVPSYWFFDFWGPGTMVTVSSGGGGAGGGGEVQVVETGGGLVQPGSSLKLSCESSGFTFSSTWMNWVRQAPGKGLEWVALVKDKYSNYEANYAESVKGRFIISRDDSKNRVYLQMNTLRDQDTATYHCTRSRGYKNWYFDFWGPGTMVTVSSAKTTAPSVYPLAPVCGDTTGSSVTLGCLVKGYFPEPVTLTWNSGSLSSGVHTFPAVLQSDLYTLSSSVTVTSSTWPSQSITCNVAHPASSTKVDKKIEPRGPTIKPCPPCKCPAPNLEGGPSVFIFPPKIKDVLMISLSPIVTCVVVDVSEDDPDVQISWFVNNVEVHTAQTQTHREDYNSTLRVVSALPIQHQDWMSGKAFACAVNNKDLPAPIERTISKPKGSVRAPQVYVLPPPEEEMTKKQVTLTCMVTDFMPEDIYVEWTNNGKTELNYKNTEPVLDSDGSYFMYSKLRVEKKNWVERNSYSCSVVHEGLHNHHTTKSFSRTPGK
light: DIQMTQSPPSLSASLGDKVTITCQASQNINNYIAWYQQKPGKAPGLLILYTSTLVSGTPSRFSGSGSGRDYSFSISNVESEDIASYYCLQYDNSPRTFGGGTKLELKRADAAPTVSIFPPSSEQLTSGGASVVCFLNNFYPKDINVKWKIDGSERQNGVLNSWTDQDSKDSTYSMSSTLTLTKDEYERHNSYTCEATHKTSTSPIVKSFNRNEC
B4: LoSTIM 4 (bispecific antibody, mouse IgG2a, kappa)
heavy: EVQVVETGGGLVQPGSSLKLSCESSGFTFSSTWMNWVRQAPGKGLEWVALVKDKYSNYEANYAESVKGRFIISRDDSKNRVYLQMNTLRDQDTATYHCTRSRGYKNWYFDFWGPGTMVTVSSAKTTAPSVYPLAPVCGDTTGSSVTLGCLVKGYFPEPVTLTWNSGSLSSGVHTFPAVLQSDLYTLSSSVTVTSSTWPSQSITCNVAHPASSTKVDKKIEPRGPTIKPCPPCKCPAPNLEGGPSVFIFPPKIKDVLMISLSPIVTCVVVDVSEDDPDVQISWFVNNVEVHTAQTQTHREDYNSTLRVVSALPIQHQDWMSGKAFACAVNNKDLPAPIERTISKPKGSVRAPQVYVLPPPEEEMTKKQVTLTCMVTDFMPEDIYVEWTNNGKTELNYKNTEPVLDSDGSYFMYSKLRVEKKNWVERNSYSCSVVHEGLHNHHTTKSFSRTPGKGGGGAGGGGDVALTQTPVAQPVTLGDQASISCRSSQSLVHSNGRTYLEWYLQKPGQSPQLLIYKVSNRFSGVPDRFIGSGSGSDFTLTISRVEPEDLGVYYCFQATHDPNTFGAGTKLELKGGGGSGGGGSGGGGSQVQLQQSGAELVKPGSSVKISCKASGYTFTSHFIHWIKQQPGNGLEWIGGIYPGDGDTEYNQQFNGKATLTADKSSSTAYMRLSSLTSEDSAVYFCATRVPSYWFFDFWGPGTMVTVSS
light: B3 light

Molecular target: T1, mouse PD-1
Assay: cell-based or functional assay

Binder	proliferation by CFSE dilution; BALB/c CD8 T cells with allogeneic C57B6 BMDDC, 0.5 micromolar, 84 h [%]	proliferation by CFSE dilution; OT-I CD8 T cells with SIINFEKL-pulsed C57B6 BMDDC, 0.5 micromolar, 72 h [%]	CD69 expression; OT-I CD8 T cells with SIINFEKL-pulsed BMDDC, 0.5 micromolar, 57 h [%]	proliferation (CFSE dilution); OT-I CD8 T cells with SIINFEKL-pulsed BMDDC, 0.5 micromolar, 57 h [%]
B1	63.6	43.9	–	–
B2	69.1	78.4	–	–
B3	–	–	61	90.1
B4	–	–	79	96.1
